# Starred links: 1 amine or outer side, 2 acyl side, 3 side chain; linkers in the order of their positions; H or OH if unused. Non-standard residues stand in square brackets, D forms with d. Groups on a side chain read outwards from the residue. No end group written: not given here. *: point of attachment. 2OEGgEgE‑C15DA = 2OEGgEgE-C15 diacid linker-lipid on the Lys side chain, O=C(O)CCCCCCCCCCCCCC(=O)N[C@@H](CCC(=O)N[C@@H](CCC(=O)NCCOCCOCC(=O)NCCOCCOCC(=O)*)C(=O)O)C(=O)O; GGEEE‑C15DA = Gly-Gly-Glu-Glu-Glu linker (GGEEE) joined to a C15 diacid lipid (C15DA), on the Lys side chain; 2OEGgE‑C16DA = O=C(O)CCCCCCCCCCCCCCC(=O)N[C@@H](CCC(=O)NCCOCCOCC(=O)NCCOCCOCC(=O)*)C(=O)O; C15 diacid = O=C(O)CCCCCCCCCCCCCC(=O)*; γGlu = O=C(O)[C@H](CCC(=O)[*:2])N[*:1]; NMeY = CN[C@@H](Cc1ccc(O)cc1)C(=O)O; AEEA = NCCOCCOCC(=O)O; Aib = CC(C)(N)C(=O)O
# T1: full-length human GIPR with an N-terminal FLAG tag (human, UniProt P48546 22-466)
# T1 sequence (looked up): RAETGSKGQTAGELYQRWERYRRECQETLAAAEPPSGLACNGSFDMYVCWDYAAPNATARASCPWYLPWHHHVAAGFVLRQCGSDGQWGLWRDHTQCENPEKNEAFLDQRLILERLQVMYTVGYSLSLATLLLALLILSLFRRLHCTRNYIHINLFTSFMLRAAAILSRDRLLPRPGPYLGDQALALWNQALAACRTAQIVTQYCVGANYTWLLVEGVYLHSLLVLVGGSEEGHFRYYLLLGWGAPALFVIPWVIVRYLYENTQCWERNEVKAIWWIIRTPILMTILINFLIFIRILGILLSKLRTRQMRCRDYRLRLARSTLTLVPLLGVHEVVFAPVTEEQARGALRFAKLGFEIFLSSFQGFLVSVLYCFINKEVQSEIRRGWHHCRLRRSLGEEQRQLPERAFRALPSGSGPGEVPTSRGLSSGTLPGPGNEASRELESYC
# B1: Compound 10 (peptide)
# peptide: [NMeY][Aib]EGTFISDYSIALDRIHQ[Aib]NFVNWLLK(2OEGgE‑C16DA)QK
# B2: Compound 117 (peptide)
# peptide: [NMeY][Aib]EGTFISDYSI[Aib]LDR[Aib]KQ[Aib]DFVNWLLAQR-NH2
# modifications: not fully specified (residue 18)
# B3: Compound 108 (peptide)
# peptide: [NMeY][Aib]EGTFISDYSI[Aib]LDR[Aib]AQ[Aib]K(2OEGgEgE‑C15DA)FVNWLLAQR-NH2
# modifications: N-terminus assumed
# SMILES: CC[C@H](C)[C@H](NC(=O)[C@H](Cc1ccccc1)NC(=O)[C@@H](NC(=O)CNC(=O)[C@H](CCC(=O)O)NC(=O)C(C)(C)NC(=O)[C@H](Cc1ccc(O)cc1)NC)[C@@H](C)O)C(=O)N[C@@H](CO)C(=O)N[C@@H](CC(=O)O)C(=O)N[C@@H](Cc1ccc(O)cc1)C(=O)N[C@@H](CO)C(=O)N[C@H](C(=O)NC(C)(C)C(=O)N[C@@H](CC(C)C)C(=O)N[C@@H](CC(=O)O)C(=O)N[C@@H](CCCNC(=N)N)C(=O)NC(C)(C)C(=O)N[C@@H](C)C(=O)N[C@@H](CCC(N)=O)C(=O)NC(C)(C)C(=O)N[C@@H](CCCCNC(=O)COCCOCCNC(=O)COCCOCCNC(=O)CC[C@H](NC(=O)CC[C@H](NC(=O)CCCCCCCCCCCCCC(=O)O)C(=O)O)C(=O)O)C(=O)N[C@@H](Cc1ccccc1)C(=O)N[C@H](C(=O)N[C@@H](CC(N)=O)C(=O)N[C@@H](Cc1c[nH]c2ccccc12)C(=O)N[C@@H](CC(C)C)C(=O)N[C@@H](CC(C)C)C(=O)N[C@@H](C)C(=O)N[C@@H](CCC(N)=O)C(=O)N[C@@H](CCCNC(=N)N)C(N)=O)C(C)C)[C@@H](C)CC
# B4: Compound 104 (peptide)
# peptide: [NMeY][Aib]EGTFISDYSIALDRK([AEEA-AEEA-γGlu-C15 diacid])AQ[Aib]DFVNWLLAQRPSSGAPPPS-NH2
# B5: Compound 112 (peptide)
# peptide: [NMeY][Aib]EGTFISDYSI[Aib]LDR[Aib]AQ[Aib]K([AEEA-γGlu-γGlu-γGlu-C15 diacid])FVNWLLAQK-NH2
# modifications: N-terminus assumed
# SMILES: CC[C@H](C)[C@H](NC(=O)[C@H](Cc1ccccc1)NC(=O)[C@@H](NC(=O)CNC(=O)[C@H](CCC(=O)O)NC(=O)C(C)(C)NC(=O)[C@H](Cc1ccc(O)cc1)NC)[C@@H](C)O)C(=O)N[C@@H](CO)C(=O)N[C@@H](CC(=O)O)C(=O)N[C@@H](Cc1ccc(O)cc1)C(=O)N[C@@H](CO)C(=O)N[C@H](C(=O)NC(C)(C)C(=O)N[C@@H](CC(C)C)C(=O)N[C@@H](CC(=O)O)C(=O)N[C@@H](CCCNC(=N)N)C(=O)NC(C)(C)C(=O)N[C@@H](C)C(=O)N[C@@H](CCC(N)=O)C(=O)NC(C)(C)C(=O)N[C@@H](CCCCNC(=O)COCCOCCNC(=O)CC[C@H](NC(=O)CC[C@H](NC(=O)CC[C@H](NC(=O)CCCCCCCCCCCCCC(=O)O)C(=O)O)C(=O)O)C(=O)O)C(=O)N[C@@H](Cc1ccccc1)C(=O)N[C@H](C(=O)N[C@@H](CC(N)=O)C(=O)N[C@@H](Cc1c[nH]c2ccccc12)C(=O)N[C@@H](CC(C)C)C(=O)N[C@@H](CC(C)C)C(=O)N[C@@H](C)C(=O)N[C@@H](CCC(N)=O)C(=O)N[C@@H](CCCCN)C(N)=O)C(C)C)[C@@H](C)CC
# B6: Compound 103 (peptide)
# peptide: [NMeY][Aib]EGTFISDYSI[Aib]LDR[Aib]AQ[Aib]K(2OEGgEgE‑C15DA)FVNWLLAQSPSSGAPPPS-NH2
# modifications: N-terminus assumed
# SMILES: CC[C@H](C)[C@H](NC(=O)[C@H](Cc1ccccc1)NC(=O)[C@@H](NC(=O)CNC(=O)[C@H](CCC(=O)O)NC(=O)C(C)(C)NC(=O)[C@H](Cc1ccc(O)cc1)NC)[C@@H](C)O)C(=O)N[C@@H](CO)C(=O)N[C@@H](CC(=O)O)C(=O)N[C@@H](Cc1ccc(O)cc1)C(=O)N[C@@H](CO)C(=O)N[C@H](C(=O)NC(C)(C)C(=O)N[C@@H](CC(C)C)C(=O)N[C@@H](CC(=O)O)C(=O)N[C@@H](CCCNC(=N)N)C(=O)NC(C)(C)C(=O)N[C@@H](C)C(=O)N[C@@H](CCC(N)=O)C(=O)NC(C)(C)C(=O)N[C@@H](CCCCNC(=O)COCCOCCNC(=O)COCCOCCNC(=O)CC[C@H](NC(=O)CC[C@H](NC(=O)CCCCCCCCCCCCCC(=O)O)C(=O)O)C(=O)O)C(=O)N[C@@H](Cc1ccccc1)C(=O)N[C@H](C(=O)N[C@@H](CC(N)=O)C(=O)N[C@@H](Cc1c[nH]c2ccccc12)C(=O)N[C@@H](CC(C)C)C(=O)N[C@@H](CC(C)C)C(=O)N[C@@H](C)C(=O)N[C@@H](CCC(N)=O)C(=O)N[C@@H](CO)C(=O)N1CCC[C@H]1C(=O)N[C@@H](CO)C(=O)N[C@@H](CO)C(=O)NCC(=O)N[C@@H](C)C(=O)N1CCC[C@H]1C(=O)N1CCC[C@H]1C(=O)N1CCC[C@H]1C(=O)N[C@@H](CO)C(N)=O)C(C)C)[C@@H](C)CC
# B7: Compound 105 (peptide)
# peptide: [NMeY][Aib]EGTFISDYSIALDR[Aib]K(GGEEE‑C15DA)Q[Aib]NFVNWLLAQSPSSGAPPPS-NH2
# B8: Compound 109 (peptide)
# peptide: [NMeY][Aib]EGTFISDYSIALDR[Aib]AQ[Aib]DFVNWLLAK(2OEGgE‑C15DA)RPSSGAPPPS-NH2
# B9: Compound 106 (peptide)
# peptide: [NMeY][Aib]EGTFISDYSIALDR[Aib]KQ[Aib]DFVNWLLAQSPSSGAPPPS-NH2
# modifications: not fully specified (residue 18, N-terminus)
# B10: Compound 114 (peptide)
# peptide: [NMeY][Aib]EGTFISDYSI[Aib]LDR[Aib]AQ[Aib]KFVNWLLAQRGGGGS-NH2
# modifications: not fully specified (residue 21)
# B11: Compound 115 (peptide)
# peptide: [NMeY][Aib]EGTFISDYSI[Aib]K([AEEA-γGlu-γGlu-γGlu-C15 diacid])DR[Aib]AQ[Aib]NFVNWLLAQR-NH2
# modifications: N-terminus assumed
# SMILES: CC[C@H](C)[C@H](NC(=O)[C@H](Cc1ccccc1)NC(=O)[C@@H](NC(=O)CNC(=O)[C@H](CCC(=O)O)NC(=O)C(C)(C)NC(=O)[C@H](Cc1ccc(O)cc1)NC)[C@@H](C)O)C(=O)N[C@@H](CO)C(=O)N[C@@H](CC(=O)O)C(=O)N[C@@H](Cc1ccc(O)cc1)C(=O)N[C@@H](CO)C(=O)N[C@H](C(=O)NC(C)(C)C(=O)N[C@@H](CCCCNC(=O)COCCOCCNC(=O)CC[C@H](NC(=O)CC[C@H](NC(=O)CC[C@H](NC(=O)CCCCCCCCCCCCCC(=O)O)C(=O)O)C(=O)O)C(=O)O)C(=O)N[C@@H](CC(=O)O)C(=O)N[C@@H](CCCNC(=N)N)C(=O)NC(C)(C)C(=O)N[C@@H](C)C(=O)N[C@@H](CCC(N)=O)C(=O)NC(C)(C)C(=O)N[C@@H](CC(N)=O)C(=O)N[C@@H](Cc1ccccc1)C(=O)N[C@H](C(=O)N[C@@H](CC(N)=O)C(=O)N[C@@H](Cc1c[nH]c2ccccc12)C(=O)N[C@@H](CC(C)C)C(=O)N[C@@H](CC(C)C)C(=O)N[C@@H](C)C(=O)N[C@@H](CCC(N)=O)C(=O)N[C@@H](CCCNC(=N)N)C(N)=O)C(C)C)[C@@H](C)CC
# B12: Compound 116 (peptide)
# peptide: [NMeY][Aib]EGTFISDYSI[Aib]K([AEEA-AEEA-γGlu-C15 diacid])DR[Aib]AQ[Aib]DFVNWLLAQRPSSGAPPPS-NH2
# modifications: N-terminus assumed
# SMILES: CC[C@H](C)[C@H](NC(=O)[C@H](Cc1ccccc1)NC(=O)[C@@H](NC(=O)CNC(=O)[C@H](CCC(=O)O)NC(=O)C(C)(C)NC(=O)[C@H](Cc1ccc(O)cc1)NC)[C@@H](C)O)C(=O)N[C@@H](CO)C(=O)N[C@@H](CC(=O)O)C(=O)N[C@@H](Cc1ccc(O)cc1)C(=O)N[C@@H](CO)C(=O)N[C@H](C(=O)NC(C)(C)C(=O)N[C@@H](CCCCNC(=O)COCCOCCNC(=O)COCCOCCNC(=O)CC[C@H](NC(=O)CCCCCCCCCCCCCC(=O)O)C(=O)O)C(=O)N[C@@H](CC(=O)O)C(=O)N[C@@H](CCCNC(=N)N)C(=O)NC(C)(C)C(=O)N[C@@H](C)C(=O)N[C@@H](CCC(N)=O)C(=O)NC(C)(C)C(=O)N[C@@H](CC(=O)O)C(=O)N[C@@H](Cc1ccccc1)C(=O)N[C@H](C(=O)N[C@@H](CC(N)=O)C(=O)N[C@@H](Cc1c[nH]c2ccccc12)C(=O)N[C@@H](CC(C)C)C(=O)N[C@@H](CC(C)C)C(=O)N[C@@H](C)C(=O)N[C@@H](CCC(N)=O)C(=O)N[C@@H](CCCNC(=N)N)C(=O)N1CCC[C@H]1C(=O)N[C@@H](CO)C(=O)N[C@@H](CO)C(=O)NCC(=O)N[C@@H](C)C(=O)N1CCC[C@H]1C(=O)N1CCC[C@H]1C(=O)N1CCC[C@H]1C(=O)N[C@@H](CO)C(N)=O)C(C)C)[C@@H](C)CC
# What was measured:
# [1] = biological target: full-length human GLP-1R with an N-terminal FLAG tag (human, UniProt P43220 24-463); experiment: cell-based or functional assay
# [2] = biological target: T1, full-length human GIPR with an …; experiment: cell-based or functional assay
Binder,Human GLP1R cAMP HEK293T EC50 [1] [nM],"Human GIPR cAMP, HEK293T EC50 [2] [nM]"
B1,955,0.0006
B2,1000,0.0006
B3,41.7,0.0005
B4,1000,0.0004
B5,12,0.0004
B6,148,0.0005
B7,1000,0.0003
B8,832,0.0005
B9,120,0.0005
B10,115,0.0007
B11,437,0.0005
B12,339,0.0003

# — patent US20220227830A1, “QD DOSING OF GIP RECEPTOR AGONIST PEPTIDE COMPOUNDS AND USES THEREOF” (Takeda Pharmaceutical Company Limited, priority 2020, published 2022)
